Data taken from patent publication US20140087995A1 (published 2014).
Numbered stars: 1 amine (or outer) side, 2 acyl side, 3 side chain; on linkers, the order of the positions; unused ones are H or OH. Bridge positions count the residues as written; N and C are the ends. Side chains are listed from the residue outwards. Ends that are not written are not given here. * marks the point of attachment. C20 diacid = O=C(O)CCCCCCCCCCCCCCCCCCC(=O)*; γGlu = O=C(O)[C@H](CCC(=O)[*:2])N[*:1]; AEEA = NCCOCCOCC(=O)O

T1: rat calcitonin receptor (rat, UniProt P32214 25-516)
T1 construct: whole, on cells; Cell membranes of transiently transfected BHK tk'ts 13 cells (Assay VIII); also called rCTR; rCT
T1 sequence (looked up): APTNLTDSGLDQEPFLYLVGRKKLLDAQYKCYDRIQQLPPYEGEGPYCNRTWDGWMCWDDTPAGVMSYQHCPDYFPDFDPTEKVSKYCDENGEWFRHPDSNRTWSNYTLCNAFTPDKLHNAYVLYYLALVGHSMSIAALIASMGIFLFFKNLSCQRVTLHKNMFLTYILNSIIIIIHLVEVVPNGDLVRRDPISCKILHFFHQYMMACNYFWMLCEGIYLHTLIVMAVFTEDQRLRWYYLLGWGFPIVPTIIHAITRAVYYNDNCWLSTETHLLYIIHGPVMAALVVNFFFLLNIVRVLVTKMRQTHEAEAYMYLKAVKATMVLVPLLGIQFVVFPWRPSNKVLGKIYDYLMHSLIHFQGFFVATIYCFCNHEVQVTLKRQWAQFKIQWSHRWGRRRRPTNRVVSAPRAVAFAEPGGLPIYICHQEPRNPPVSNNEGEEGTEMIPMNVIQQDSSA

T2: rat amylin receptor (rat calcitonin receptor + rat RAMP 3) (rat, UniProt P32214 25-516; Q9JJ73 23-147)
T2 construct: whole, on cells; Cell membranes of transiently transfected BHK tk'ts 13 cells (Assay VI); also called rAmylin-R; rat amylin 3(a) receptor
T2 sequence (looked up) 1: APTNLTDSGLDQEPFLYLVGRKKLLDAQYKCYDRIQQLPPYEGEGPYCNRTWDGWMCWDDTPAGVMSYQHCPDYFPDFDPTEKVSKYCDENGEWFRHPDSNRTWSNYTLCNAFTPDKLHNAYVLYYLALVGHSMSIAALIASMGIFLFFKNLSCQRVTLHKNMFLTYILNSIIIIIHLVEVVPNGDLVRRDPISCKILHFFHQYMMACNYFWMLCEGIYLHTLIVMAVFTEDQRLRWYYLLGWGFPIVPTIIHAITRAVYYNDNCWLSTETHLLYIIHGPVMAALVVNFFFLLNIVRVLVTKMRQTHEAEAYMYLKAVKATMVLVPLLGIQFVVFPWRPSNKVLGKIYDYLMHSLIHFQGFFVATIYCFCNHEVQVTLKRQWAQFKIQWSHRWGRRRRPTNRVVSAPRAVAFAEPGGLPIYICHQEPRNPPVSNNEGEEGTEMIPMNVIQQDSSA
T2 sequence (looked up) 2: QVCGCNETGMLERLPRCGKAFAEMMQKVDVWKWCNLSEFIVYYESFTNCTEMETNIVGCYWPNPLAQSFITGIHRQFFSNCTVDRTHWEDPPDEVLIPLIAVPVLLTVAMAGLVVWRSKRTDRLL


Columns and labels:
[1] = biological target: T1, rat calcitonin receptor; test: ratio IC50 rat calcitonin receptor / IC50 rat amylin receptor
[2] = biological target: T2, rat amylin receptor (rat calcitonin …); test: SPA competition vs 125I-rat amylin, membranes with rat CTR + rat RAMP3 (Assay VI)
[3] = biological target: T1, rat calcitonin receptor; test: SPA competition vs 125I-calcitonin, membranes with rat CTR (Assay VIII)

Row | Binder | Ratio rCT/rAmylin binding [1] | IC50 [2] [nM] | IC50 [3] [nM]
1 | K([AEEA-γGlu-C20 diacid])CNTATCATQRLANFLRHSSPNFGAIPPSTNVGPNTY-NH2 (disulfide 2-7; N-terminus assumed; SMILES CC[C@H](C)[C@H](NC(=O)[C@H](C)NC(=O)CNC(=O)[C@H](Cc1ccccc1)NC(=O)[C@H](CC(N)=O)NC(=O)[C@@H]1CCCN1C(=O)[C@H](CO)NC(=O)[C@H](CO)NC(=O)[C@H](Cc1c[nH]cn1)NC(=O)[C@H](CCCNC(=N)N)NC(=O)[C@H](CC(C)C)NC(=O)[C@H](Cc1ccccc1)NC(=O)[C@H](CC(N)=O)NC(=O)[C@H](C)NC(=O)[C@H](CC(C)C)NC(=O)[C@H](CCCNC(=N)N)NC(=O)[C@H](CCC(N)=O)NC(=O)[C@@H](NC(=O)[C@H](C)NC(=O)[C@@H]1CSSC[C@H](NC(=O)[C@@H](N)CCCCNC(=O)COCCOCCNC(=O)CC[C@H](NC(=O)CCCCCCCCCCCCCCCCCCC(=O)O)C(=O)O)C(=O)N[C@@H](CC(N)=O)C(=O)N[C@@H]([C@@H](C)O)C(=O)N[C@@H](C)C(=O)N[C@@H]([C@@H](C)O)C(=O)N1)[C@@H](C)O)C(=O)N1CCC[C@H]1C(=O)N1CCC[C@H]1C(=O)N[C@@H](CO)C(=O)N[C@H](C(=O)N[C@@H](CC(N)=O)C(=O)N[C@H](C(=O)NCC(=O)N1CCC[C@H]1C(=O)N[C@@H](CC(N)=O)C(=O)N[C@H](C(=O)N[C@@H](Cc1ccc(O)cc1)C(N)=O)[C@@H](C)O)C(C)C)[C@@H](C)O, Acylated analogue of human amylin; also called compound 55) | 77.2 | 0.081 | 6.25
2 | K([AEEA-γGlu-C20 diacid])CNTATCATQRLANFLRHSSPNFGAIPSPTPVGSNTY-NH2 (disulfide 2-7; N-terminus assumed; SMILES CC[C@H](C)[C@H](NC(=O)[C@H](C)NC(=O)CNC(=O)[C@H](Cc1ccccc1)NC(=O)[C@H](CC(N)=O)NC(=O)[C@@H]1CCCN1C(=O)[C@H](CO)NC(=O)[C@H](CO)NC(=O)[C@H](Cc1c[nH]cn1)NC(=O)[C@H](CCCNC(=N)N)NC(=O)[C@H](CC(C)C)NC(=O)[C@H](Cc1ccccc1)NC(=O)[C@H](CC(N)=O)NC(=O)[C@H](C)NC(=O)[C@H](CC(C)C)NC(=O)[C@H](CCCNC(=N)N)NC(=O)[C@H](CCC(N)=O)NC(=O)[C@@H](NC(=O)[C@H](C)NC(=O)[C@@H]1CSSC[C@H](NC(=O)[C@@H](N)CCCCNC(=O)COCCOCCNC(=O)CC[C@H](NC(=O)CCCCCCCCCCCCCCCCCCC(=O)O)C(=O)O)C(=O)N[C@@H](CC(N)=O)C(=O)N[C@@H]([C@@H](C)O)C(=O)N[C@@H](C)C(=O)N[C@@H]([C@@H](C)O)C(=O)N1)[C@@H](C)O)C(=O)N1CCC[C@H]1C(=O)N[C@@H](CO)C(=O)N1CCC[C@H]1C(=O)N[C@H](C(=O)N1CCC[C@H]1C(=O)N[C@H](C(=O)NCC(=O)N[C@@H](CO)C(=O)N[C@@H](CC(N)=O)C(=O)N[C@H](C(=O)N[C@@H](Cc1ccc(O)cc1)C(N)=O)[C@@H](C)O)C(C)C)[C@@H](C)O, Acylated analogue of human amylin; also called compound 54) | 179 | 0.049 | 8.79
3 | K([AEEA-γGlu-C20 diacid])CNTATCATQRLANFLRHSSPNFGAIPSPTNVGPNTY-NH2 (disulfide 2-7; N-terminus assumed; SMILES CC[C@H](C)[C@H](NC(=O)[C@H](C)NC(=O)CNC(=O)[C@H](Cc1ccccc1)NC(=O)[C@H](CC(N)=O)NC(=O)[C@@H]1CCCN1C(=O)[C@H](CO)NC(=O)[C@H](CO)NC(=O)[C@H](Cc1c[nH]cn1)NC(=O)[C@H](CCCNC(=N)N)NC(=O)[C@H](CC(C)C)NC(=O)[C@H](Cc1ccccc1)NC(=O)[C@H](CC(N)=O)NC(=O)[C@H](C)NC(=O)[C@H](CC(C)C)NC(=O)[C@H](CCCNC(=N)N)NC(=O)[C@H](CCC(N)=O)NC(=O)[C@@H](NC(=O)[C@H](C)NC(=O)[C@@H]1CSSC[C@H](NC(=O)[C@@H](N)CCCCNC(=O)COCCOCCNC(=O)CC[C@H](NC(=O)CCCCCCCCCCCCCCCCCCC(=O)O)C(=O)O)C(=O)N[C@@H](CC(N)=O)C(=O)N[C@@H]([C@@H](C)O)C(=O)N[C@@H](C)C(=O)N[C@@H]([C@@H](C)O)C(=O)N1)[C@@H](C)O)C(=O)N1CCC[C@H]1C(=O)N[C@@H](CO)C(=O)N1CCC[C@H]1C(=O)N[C@H](C(=O)N[C@@H](CC(N)=O)C(=O)N[C@H](C(=O)NCC(=O)N1CCC[C@H]1C(=O)N[C@@H](CC(N)=O)C(=O)N[C@H](C(=O)N[C@@H](Cc1ccc(O)cc1)C(N)=O)[C@@H](C)O)C(C)C)[C@@H](C)O, Acylated analogue of human amylin; also called compound 56) | 131 | 0.04 | 5.26
4 | K([AEEA-γGlu-C20 diacid])CNTATCATQRLANFLRHSSPNFGAIPSSTNVGPHTY-NH2 (disulfide 2-7; N-terminus assumed; SMILES CC[C@H](C)[C@H](NC(=O)[C@H](C)NC(=O)CNC(=O)[C@H](Cc1ccccc1)NC(=O)[C@H](CC(N)=O)NC(=O)[C@@H]1CCCN1C(=O)[C@H](CO)NC(=O)[C@H](CO)NC(=O)[C@H](Cc1c[nH]cn1)NC(=O)[C@H](CCCNC(=N)N)NC(=O)[C@H](CC(C)C)NC(=O)[C@H](Cc1ccccc1)NC(=O)[C@H](CC(N)=O)NC(=O)[C@H](C)NC(=O)[C@H](CC(C)C)NC(=O)[C@H](CCCNC(=N)N)NC(=O)[C@H](CCC(N)=O)NC(=O)[C@@H](NC(=O)[C@H](C)NC(=O)[C@@H]1CSSC[C@H](NC(=O)[C@@H](N)CCCCNC(=O)COCCOCCNC(=O)CC[C@H](NC(=O)CCCCCCCCCCCCCCCCCCC(=O)O)C(=O)O)C(=O)N[C@@H](CC(N)=O)C(=O)N[C@@H]([C@@H](C)O)C(=O)N[C@@H](C)C(=O)N[C@@H]([C@@H](C)O)C(=O)N1)[C@@H](C)O)C(=O)N1CCC[C@H]1C(=O)N[C@@H](CO)C(=O)N[C@@H](CO)C(=O)N[C@H](C(=O)N[C@@H](CC(N)=O)C(=O)N[C@H](C(=O)NCC(=O)N1CCC[C@H]1C(=O)N[C@@H](Cc1c[nH]cn1)C(=O)N[C@H](C(=O)N[C@@H](Cc1ccc(O)cc1)C(N)=O)[C@@H](C)O)C(C)C)[C@@H](C)O, Acylated analogue of human amylin; also called compound 58) | 76.6 | 0.135 | 10.3

Results, then the binder that gave them:

Row | Ratio rCT/rAmylin binding [1] | IC50 [2] [nM] | IC50 [3] [nM] | Binder
5 | 135 | 0.181 | 24.4 | K([AEEA-γGlu-C20 diacid])CNTATCATQRLANFLRHSSPNFGAIPSSTPVGSHTY-NH2 (disulfide 2-7; N-terminus assumed; SMILES CC[C@H](C)[C@H](NC(=O)[C@H](C)NC(=O)CNC(=O)[C@H](Cc1ccccc1)NC(=O)[C@H](CC(N)=O)NC(=O)[C@@H]1CCCN1C(=O)[C@H](CO)NC(=O)[C@H](CO)NC(=O)[C@H](Cc1c[nH]cn1)NC(=O)[C@H](CCCNC(=N)N)NC(=O)[C@H](CC(C)C)NC(=O)[C@H](Cc1ccccc1)NC(=O)[C@H](CC(N)=O)NC(=O)[C@H](C)NC(=O)[C@H](CC(C)C)NC(=O)[C@H](CCCNC(=N)N)NC(=O)[C@H](CCC(N)=O)NC(=O)[C@@H](NC(=O)[C@H](C)NC(=O)[C@@H]1CSSC[C@H](NC(=O)[C@@H](N)CCCCNC(=O)COCCOCCNC(=O)CC[C@H](NC(=O)CCCCCCCCCCCCCCCCCCC(=O)O)C(=O)O)C(=O)N[C@@H](CC(N)=O)C(=O)N[C@@H]([C@@H](C)O)C(=O)N[C@@H](C)C(=O)N[C@@H]([C@@H](C)O)C(=O)N1)[C@@H](C)O)C(=O)N1CCC[C@H]1C(=O)N[C@@H](CO)C(=O)N[C@@H](CO)C(=O)N[C@H](C(=O)N1CCC[C@H]1C(=O)N[C@H](C(=O)NCC(=O)N[C@@H](CO)C(=O)N[C@@H](Cc1c[nH]cn1)C(=O)N[C@H](C(=O)N[C@@H](Cc1ccc(O)cc1)C(N)=O)[C@@H](C)O)C(C)C)[C@@H](C)O, Acylated analogue of human amylin; also called compound 57)
6 | 81.7 | 0.069 | 5.63 | K([AEEA-γGlu-C20 diacid])CNTATCATQRLANFLRHSSPNFGAIPSSTNVGPNTY-NH2 (disulfide 2-7; N-terminus assumed; SMILES CC[C@H](C)[C@H](NC(=O)[C@H](C)NC(=O)CNC(=O)[C@H](Cc1ccccc1)NC(=O)[C@H](CC(N)=O)NC(=O)[C@@H]1CCCN1C(=O)[C@H](CO)NC(=O)[C@H](CO)NC(=O)[C@H](Cc1c[nH]cn1)NC(=O)[C@H](CCCNC(=N)N)NC(=O)[C@H](CC(C)C)NC(=O)[C@H](Cc1ccccc1)NC(=O)[C@H](CC(N)=O)NC(=O)[C@H](C)NC(=O)[C@H](CC(C)C)NC(=O)[C@H](CCCNC(=N)N)NC(=O)[C@H](CCC(N)=O)NC(=O)[C@@H](NC(=O)[C@H](C)NC(=O)[C@@H]1CSSC[C@H](NC(=O)[C@@H](N)CCCCNC(=O)COCCOCCNC(=O)CC[C@H](NC(=O)CCCCCCCCCCCCCCCCCCC(=O)O)C(=O)O)C(=O)N[C@@H](CC(N)=O)C(=O)N[C@@H]([C@@H](C)O)C(=O)N[C@@H](C)C(=O)N[C@@H]([C@@H](C)O)C(=O)N1)[C@@H](C)O)C(=O)N1CCC[C@H]1C(=O)N[C@@H](CO)C(=O)N[C@@H](CO)C(=O)N[C@H](C(=O)N[C@@H](CC(N)=O)C(=O)N[C@H](C(=O)NCC(=O)N1CCC[C@H]1C(=O)N[C@@H](CC(N)=O)C(=O)N[C@H](C(=O)N[C@@H](Cc1ccc(O)cc1)C(N)=O)[C@@H](C)O)C(C)C)[C@@H](C)O, Acylated analogue of human amylin; also called compound 50)
